Assay results published in US9018171B2, “Uses of an immunomodulatory protein (GMI) from Ganoderma microsporum” (Mycomagic Biotechnology Co., Ltd., priority 2010, dated 2015).
Read-outs that look alike come from different tables or passages of the source.

Key:
MDA-MB-468 = assay: NCI60 in vitro screening, Breast Cancer; type: cell-based
Stat3 = assay: Western blotting, EGF-induced phosphorylation; type: cell-based, human; conditions: A549 cells, pretreated 8 h, EGF 10 minutes
Description: (§1) A549 cells (5×10^5 cells/60 mm) were pretreated with various concentrations of GMI (4, 16 μg/ml) or AG1478 (EGFR inhibitors) for 8 hours prior to incubation for 10 minutes with EGF (as indicated). Cell lysates were subject to immunoblotting with phospho-specific EGFR (Y1068) (A and B), anti-phospho-AKT (A), anti-AKT (A), anti-phospho-GSK3β (A) or anti-phospho-STAT3 antibodies (B). Protein loading was determined by Western blotting against β-actin (A and B).
(§2) Total cell lysates were prepared in RIPA buffer (100 μl in 60 mm in dish). Fifty μg of lysate were loaded onto an 8% polyacrylamide gel and analyzed by SDS gel electrophoresis. After transfer to PVDF (Amersham), blots were blocked with 5% skim milk in TBS (10 mM Tris-CL pH7.5, 150 mM NaCl) containing 0.2% Tween-20. Blots were probed with antibodies (at their recommended dilutions) in 5% skim milk in TBS overnight at 4° C. Following detection with the appropriate horseradish-peroxidase conjugated secondary antibody (Cell Signaling), blots were developed by enhanced chemiluminescence according to the manufacturer's directions (Perkin Elmer Life Sciences). All experiments were performed in duplicate.
(§3) To assess whether GMI mediates and/or inhibits phosphorylation of Akt and Stat3, the invention investigated the effect of GMI on the phosphorylation status of Akt and Stat3 in A549 cells treated with various concentrations of GMI for 8 h.

Akt = assay: Western blotting, EGF-induced phosphorylation; type: cell-based, human; conditions: A549 cells, pretreated 8 h, EGF 10 minutes
Description: as §1, §2, §3

EGFR = assay: Western blotting, EGF-induced phosphorylation; type: cell-based, human; conditions: A549 cells, pretreated 8 h, EGF 10 minutes
Description: as §1, §2, §3

HCT-15 = assay: NCI60 in vitro screening, Colon Cancer; type: cell-based
CCRF-CEM = assay: NCI60 in vitro screening, Leukemia; type: cell-based
CAKI-1 = assay: NCI60 in vitro screening, Renal Cancer; type: cell-based
A549/ATCC = type: cell-based

B1: GMI: immunomodulatory protein from Ganoderma microsporum, amino acid sequence SEQ ID NO: 3, manufactured by Mycomagic Biotechnology Co., Ltd. (protein, listed as Ganoderma microsporum)
chain: MSDTALIFTLAWNVKQLAFDYTPNWGRGRPSSFIDTVTFPTVLTDKAYTYRVVVSGKDLGVRPSYAVESDGSQKINFLEYNSGYGIADTNTIQVYVIDPDTGNNFIVAQWN
For B1, the TGI (MDA-MB-468; MDA-MB-468) was 1.18E1, the “Percent Growth” value (MDA-MB-468; MDA-MB-468, Log10 Concentration 0.1) was 115% and the “Percent Growth” value (MDA-MB-468; MDA-MB-468, Log10 Concentration 1.1) was −3%. The “Percent Growth” value (MDA-MB-468; MDA-MB-468, Log10 Concentration 2.1) was −24%, the “Percent Growth” value (MDA-MB-468; MDA-MB-468, Log10 Concentration −0.9) was 100% and the “Percent Growth” value (MDA-MB-468; MDA-MB-468, Log10 Concentration −1.9) was 104%. The “Growth Percent” value (MDA-MB-468; MDA-MB-468, one dose) was 50.90%, the GI50 (MDA-MB-468; MDA-MB-468, in µg/mL) was 4.45E0 and the “EGF-induced activation (phosphorylation) of Stat3” value (Stat3) was “little effect”. For the same molecule, the “EGF-induced activation (phosphorylation) of Akt” value (Akt) was “significantly inhibits”, the “EGF-induced activation (phosphorylation) of EGFR” value (EGFR) was “significantly inhibits” and the TGI (HCT-15; HCT-15) was 5.26E1. For the same molecule, the “Percent Growth” value (HCT-15; HCT-15, Log10 Concentration 0.1) was 94%, the “Percent Growth” value (HCT-15; HCT-15, Log10 Concentration 1.1) was 52% and the “Percent Growth” value (HCT-15; HCT-15, Log10 Concentration 2.1) was −31%. For the same molecule, the “Percent Growth” value (HCT-15; HCT-15, Log10 Concentration −0.9) was 97%, the “Percent Growth” value (HCT-15; HCT-15, Log10 Concentration −1.9) was 97% and the “Growth Percent” value (HCT-15; HCT-15, one dose) was 33.64%. The GI50 (HCT-15; HCT-15, in µg/mL) was 1.31E1, the TGI (CCRF-CEM) was >1.25E2 and the “Percent Growth” value (CCRF-CEM; Log10 Concentration 0.1) was 97%. For the same molecule, the “Percent Growth” value (CCRF-CEM; Log10 Concentration 1.1) was 58%, the “Percent Growth” value (CCRF-CEM; Log10 Concentration 2.1) was 18% and the “Percent Growth” value (CCRF-CEM; Log10 Concentration −0.9) was 101%. For the same molecule, the “Percent Growth” value (CCRF-CEM; Log10 Concentration −1.9) was 104%, the GI50 (CCRF-CEM; in µg/mL) was 2.02E1 and the TGI (CAKI-1; CAKI-1) was 7.29E1. The “Percent Growth” value (CAKI-1; CAKI-1, Log10 Concentration 0.1) was 98%, the “Percent Growth” value (CAKI-1; CAKI-1, Log10 Concentration 1.1) was 47% and the “Percent Growth” value (CAKI-1; CAKI-1, Log10 Concentration 2.1) was −14%. For the same molecule, the “Percent Growth” value (CAKI-1; CAKI-1, Log10 Concentration −0.9) was 100%, the “Percent Growth” value (CAKI-1; CAKI-1, Log10 Concentration −1.9) was 100% and the “Growth Percent” value (CAKI-1; CAKI-1, one dose) was 96.04%. The GI50 (CAKI-1; CAKI-1, in µg/mL) was 1.08E1, the TGI (A549/ATCC) was >1.25E2 and the “Percent Growth” value (A549/ATCC; Log10 Concentration 0.1) was 94%. The “Percent Growth” value (A549/ATCC; Log10 Concentration 1.1) was 51%, the “Percent Growth” value (A549/ATCC; Log10 Concentration 2.1) was 8% and the “Percent Growth” value (A549/ATCC; Log10 Concentration −0.9) was 99%. For the same molecule, the “Percent Growth” value (A549/ATCC; Log10 Concentration −1.9) was 102%, the GI50 (A549/ATCC; in µg/mL) was 1.31E1 and the “Growth Percent” value (A549/ATCC; one dose) was 44.29%.
